Data taken from paper doi:10.1101/2020.05.04.075580.
Read-outs that look alike come from different tables or passages of the source.

How the values were obtained:
[1] = target: T1, importin alpha2_21-50 peptide (mouse, UniProt P52293); experiment: NMR
[2] = target: T1, importin alpha2_21-50 peptide; experiment: NMR; remark: listed apart in the source

B1: SOX-POU 15 bp (dsDNA)
DNA 1: GCAGATGCATAACCG
DNA 2: CGGTTATGCATCTGC
B1 showed a Kd [1] of 600 µM and a Kd [2] of 0.3 µM.
